From the supplement of paper PMC11246515
± gives the standard deviation of the averaged measurements.

Test: total protein half-life in vivo (active degradation + dilution); higher = more stable protein
[1] = E. coli NCM3722 delta-clpP delta-lon delta-hslV, growth: N-lim chemostat, doubling time 6 h
[2] = E. coli NCM3722 delta-clpP, growth: N-lim chemostat, doubling time 6 h
[3] = E. coli NCM3722 delta-hslV, growth: N-lim chemostat, doubling time 6 h
[4] = E. coli NCM3722 delta-lon, growth: N-lim chemostat, doubling time 6 h
[5] = E. coli NCM3722 delta-smpB, growth: N-lim chemostat, doubling time 6 h
[6] = wild type E. coli NCM3722, growth: C-lim chemostat, doubling time 3 h
[7] = wild type E. coli NCM3722, growth: C-lim chemostat, doubling time 6 h
[8] = wild type E. coli NCM3722, growth: C-lim chemostat, doubling time 12 h
[9] = wild type E. coli NCM3722, growth: N-lim chemostat, doubling time 6 h
[10] = wild type E. coli NCM3722, growth: N-lim chemostat, doubling time 12 h
[11] = wild type E. coli NCM3722, growth: P-lim chemostat, doubling time 6 h
[12] = wild type E. coli NCM3722, growth: P-lim chemostat, doubling time 12 h

MKRVSQMTALAMALGLACASSWAAELAKPLTLDQLQQQNGKAIDTRPSAFYNGWPQTLNGPSGHELAALNLSASWLDKMSTEQLNAWIKQHNLKTDAPVALYGNDKDVDAVKTRLQKAGLTHISILSDALSEPSRLQKLPHFEQLVYPQWLHDLQQGKEVTAKPAGDWKVIEAAWGAPKLYLISHIPGADYIDTNEVESEPLWNKVSDEQLKAMLAKHGIRHDTTVILYGRDVYAAARVAQIMLYAGVKDVRLLDGGWQTWSDAGLPVERGTPPKVKAEPDFGVKIPAQPQLMLDMEQARGLLHRQDASLVSIRSWPEFIGTTSGYSYIKPKGEIAGARWGHAGSDSTHMEDFHNPDGTMRSADDITAMWKAWNIKPEQQVSFYCGTGWRASETFMYARAMGWKNVSVYDGGWYEWSSDPKNPVATGERGPDSSK
total protein half-life in vivo [1]: 5.98 ± 1.8 h
total protein half-life in vivo [2]: 6.55 ± 1.7 h
total protein half-life in vivo [3]: 6.79 ± 0.81 h
total protein half-life in vivo [4]: 6.48 ± 0.13 h
total protein half-life in vivo [5]: 6.47 ± 0.44 h
total protein half-life in vivo [6]: 3.2 ± 0.56 h
total protein half-life in vivo [7]: 6.183 ± 0.011 h
total protein half-life in vivo [8]: 12.3 ± 0.77 h
total protein half-life in vivo [9]: 6.69 ± 1.1 h
total protein half-life in vivo [10]: 13 ± 1.9 h
total protein half-life in vivo [11]: 6.19 ± 0.064 h
total protein half-life in vivo [12]: 14.4 ± 0.58 h

MKSALKKSVVSTSISLILASGMAAFAAHAADDVKLKATKTNVAFSDFTPTEYSTKGKPNIIVLTMDDLGYGQLPFDKGSFDPKTMENREVVDTYKIGIDKAIEAAQKSTPTLLSLMDEGVRFTNGYVAHGVSGPSRAAIMTGRAPARFGVYSNTDAQDGIPLTETFLPELFQNHGYYTAAVGKWHLSKISNVPVPEDKQTRDYHDNFTTFSAEEWQPQNRGFDYFMGFHAAGTAYYNSPSLFKNRERVPAKGYISDQLTDEAIGVVDRAKTLDQPFMLYLAYNAPHLPNDNPAPDQYQKQFNTGSQTADNYYASVYSVDQGVKRILEQLKKNGQYDNTIILFTSDNGAVIDGPLPLNGAQKGYKSQTYPGGTHTPMFMWWKGKLQPGNYDKLISAMDFYPTALDAADISIPKDLKLDGVSLLPWLQDKKQGEPHKNLTWITSYSHWFDEENIPFWDNYHKFVRHQSDDYPHNPNTEDLSQFSYTVRNNDYSLVYTVENNQLGLYKLTDLQQKDNLAAANPQVVKEMQGVVREFIDSSQPPLSEVNQEKFNNIKKALSEAK
total protein half-life in vivo [6]: 2.86 ± 0.07 h
total protein half-life in vivo [7]: 5.43 ± 0.41 h
total protein half-life in vivo [9]: 7.26 h
total protein half-life in vivo [10]: 6.32 h
total protein half-life in vivo [11]: 5 ± 0.63 h

MKSATSAQRPYQEVGAMIRDLIIKTPYNPGERLPPEREIAEMLDVTRTVVREALIMLEIKGLVEVRRGAGIYVLDNSGSQNTDSPDANVCNDAGPFELLQARQLLESNIAEFAALQATREDIVKMRQALQLEERELASSAPGSSESGDMQFHLAIAEATHNSMLVELFRQSWQWRENNPMWIQLHSHLDDSLYRKEWLGDHKQILAALIKKDARAAKLAMWQHLENVKQRLLEFSNVDDIYFDGYLFDSWPLDKVDA
total protein half-life in vivo [1]: 4.94 ± 0.91 h
total protein half-life in vivo [2]: 4.94 ± 0.29 h
total protein half-life in vivo [3]: 2.75 ± 0.15 h
total protein half-life in vivo [4]: 3.04 ± 0.38 h
total protein half-life in vivo [5]: 2.82 ± 0.23 h
total protein half-life in vivo [6]: 2.21 ± 0.16 h
total protein half-life in vivo [7]: 3.86 ± 0.058 h
total protein half-life in vivo [8]: 5.88 ± 0.11 h
total protein half-life in vivo [9]: 2.83 h
total protein half-life in vivo [10]: 3.494 ± 0.022 h
total protein half-life in vivo [11]: 3.22 ± 0.098 h
total protein half-life in vivo [12]: 5.72 ± 0.14 h

MKSEVLSVKEKIGYGMGDAASHIIFDNVMLYMMFFYTDIFGIPAGFVGTMFLVARALDAISDPCMGLLADRTRSRWGKFRPWVLFGALPFGIVCVLAYSTPDLSMNGKMIYAAITYTLLTLLYTVVNIPYCALGGVITNDPTQRISLQSWRFVLATAGGMLSTVLMMPLVNLIGGDNKPLGFQGGIAVLSVVAFMMLAFCFFTTKERVEAPPTTTSMREDLRDIWQNDQWRIVGLLTIFNILAVCVRGGAMMYYVTWILGTPEVFVAFLTTYCVGNLIGSALAKPLTDWKCKVTIFWWTNALLAVISLAMFFVPMQASITMFVFIFVIGVLHQLVTPIQWVMMSDTVDYGEWCNGKRLTGISFAGTLFVLKLGLAFGGALIGWMLAYGGYDAAEKAQNSATISIIIALFTIVPAICYLLSAIIAKRYYSLTTHNLKTVMEQLAQGKRRCQQQFTSQEVQN
total protein half-life in vivo [1]: 3.79 ± 0.88 h
total protein half-life in vivo [2]: 2.71 ± 0.12 h
total protein half-life in vivo [3]: 2.34 ± 0.037 h
total protein half-life in vivo [4]: 2.68 h
total protein half-life in vivo [6]: 2.83 ± 0.12 h
total protein half-life in vivo [7]: 4.26 ± 0.11 h
total protein half-life in vivo [8]: 8.19 ± 1.7 h
total protein half-life in vivo [9]: 2.823 ± 0.011 h
total protein half-life in vivo [10]: 4.72 h
total protein half-life in vivo [11]: 5.34 ± 0.062 h
total protein half-life in vivo [12]: 9.79 ± 1.1 h

MKSGRFIGVMSGTSLDGVDVVLATIDEHRVAQLASLSWPIPVSLKQAVLDICQGQQLTLSQFGQLDTQLGQLFADAVNALLKEQNLQARDIVAIGCHGQTVWHEPTGVAPHTLQIGDNNQIVARTGITVVGDFRRRDIALGGQGAPLVPAFHHALLAHPTERRMVLNIGGIANLSLLIPGQPVGGYDTGPGNMLMDAWIWRQAGKPYDKDAEWARAGKVILPLLQNMLSDPYFSQPAPKSTGREYFNYGWLERHLRHFPGVDPRDVQATLAELTAVTISEQVLLSGGCERLMVCGGGSRNPLLMARLAALLPGTEVTTTDAVGISGDDMEALAFAWLAWRTLAGLPGNLPSVTGASQETVLGAIFPANP
total protein half-life in vivo [1]: 4.58 ± 0.37 h
total protein half-life in vivo [2]: 4.32 ± 0.2 h
total protein half-life in vivo [3]: 3.98 ± 0.065 h
total protein half-life in vivo [4]: 5.78 ± 1.9 h
total protein half-life in vivo [5]: 3.88 ± 0.11 h
total protein half-life in vivo [6]: 3.34 ± 0.54 h
total protein half-life in vivo [7]: 5.7 ± 0.078 h
total protein half-life in vivo [8]: 9.74 ± 0.51 h
total protein half-life in vivo [9]: 4.03 ± 0.26 h
total protein half-life in vivo [10]: 7.18 ± 0.17 h
total protein half-life in vivo [11]: 5.87 ± 0.47 h
total protein half-life in vivo [12]: 12.9 ± 0.95 h

MKSILIEKPNQLAIVEREIPTPSAGEVRVKVKLAGICGSDSHIYRGHNPFAKYPRVIGHEFFGVIDAVGEGVESARVGERVAVDPVVSCGHCYPCSIGKPNVCTTLAVLGVHADGGFSEYAVVPAKNAWKIPEAVADQYAVMIEPFTIAANVTGHGQPTENDTVLVYGAGPIGLTIVQVLKGVYNVKNVIVADRIDERLEKAKESGADWAINNSQTPLGEIFTEKGIKPTLIIDAACHPSILKEAVTLASPAARIVLMGFSSEPSEVIQQGITGKELSIFSSRLNANKFPIVIDWLSKGLIKPEKLITHTFDFQHVADAISLFEQDQKHCCKVLLTFSE
total protein half-life in vivo [1]: 3.84 ± 0.53 h
total protein half-life in vivo [5]: 2.11 h
total protein half-life in vivo [6]: 2.26 ± 0.28 h
total protein half-life in vivo [7]: 3.455 ± 0.03 h
total protein half-life in vivo [8]: 8.98 ± 3.8 h
total protein half-life in vivo [9]: 2.37 h
total protein half-life in vivo [11]: 4.75 h
total protein half-life in vivo [12]: 7.18 h

MKSKDTLKWFPAQLPEVRIILGDAVVEVAKQGRPINTRTLLDYIEGNIKKTSWLDNKELLQTAISVLKDNQNLNGKM
total protein half-life in vivo [5]: 2.39 h
total protein half-life in vivo [8]: 4.92 h
